These results are taken from paper PMC2824762, “Analysis of the role of PCNA-DNA contacts during clamp loading” (BMC Structural Biology, 2010).

Data set [1] concerns the molecule itself. The data set can be described thus: crystal structure; single-chain PCNA (three subunits joined on one chain) with a 10-base pair DNA; hanging drop, 100 mM Na acetate pH 4.6, 100 mM NaCl, 14% PEG 4K, 20°C; space group P2(1)2(1)2(1); 3.0 Å.
The target in data set [2] is T1, RFC (Replication Factor C clamp loader);PCNA wild-type (Saccharomyces cerevisiae;Saccharomyces …, UniProt P38630;P40348;P38629;P40339;P38251;P15873 1-861;1-353;2-340;1-323;1-354;1-258, |). The data set can be described thus: fluorescence anisotropy; RFC titrated; 1 uM PCNA, 1 mM ATPgS, 10 mM MgCl2; Kd only in figure; Anisotropy: 30 mM Tris pH 7.5, 200 mM NaCl, 2 mM DTT, 1 mM ATPgS, 10 mM MgCl2, 100 nM TAMRA-DNA, 1 uM PCNA, 25 C. Crystals: 100 mM Na acetate pH 4.6, 100 mM NaCl, 14% PEG 4K, 20 C. As to conditions: protein: recombinant;recombinant; tags: ;N-terminal 6-His, PreScission-cleaved; copies: 1;1;1;1;1;3; label: TAMRA at 5' end of template strand; 5' overhang 10 nt on template (3' recessed primer), 13 bp duplex. In general terms: Polarisation of emitted light reports the rotation of a fluorescent probe.

Data set [3] deals with T2, RFC (Replication Factor C clamp loader);PCNA K20A/K77A/R80A/R149A (Saccharomyces cerevisiae;Saccharomyces …, UniProt P38630;P40348;P38629;P40339;P38251;P15873 1-861;1-353;2-340;1-323;1-354;1-258, |K20A;K77A;R80A;R149A). The data set can be described thus: fluorescence anisotropy; RFC titrated; 1 uM mutant PCNA, 1 mM ATPgS, 10 mM MgCl2; affinity changes little vs wild-type PCNA; Kd only in figure; Anisotropy: 30 mM Tris pH 7.5, 200 mM NaCl, 2 mM DTT, 1 mM ATPgS, 10 mM MgCl2, 100 nM TAMRA-DNA, 1 uM PCNA, 25 C. Crystals: 100 mM Na acetate pH 4.6, 100 mM NaCl, 14% PEG 4K, 20 C. To be noted: protein: recombinant;recombinant; tags: ;N-terminal 6-His, PreScission-cleaved; copies: 1;1;1;1;1;3; label: TAMRA at 5' end of template strand; 5' overhang 10 nt on template (3' recessed primer), 13 bp duplex.

Data set [4] has as its target T1, RFC (Replication Factor C clamp …). Kind of data set: fluorescence anisotropy; RFC titrated; 1 uM PCNA, 1 mM ATPgS, 10 mM MgCl2; Anisotropy: 30 mM Tris pH 7.5, 200 mM NaCl, 2 mM DTT, 1 mM ATPgS, 10 mM MgCl2, 100 nM TAMRA-DNA, 1 uM PCNA, 25 C. Crystals: 100 mM Na acetate pH 4.6, 100 mM NaCl, 14% PEG 4K, 20 C. To be noted: protein: recombinant;recombinant; tags: ;N-terminal 6-His, PreScission-cleaved; copies: 1;1;1;1;1;3; label: TAMRA at 5' end of template strand; 5' overhang 10 nt on template (3' recessed primer), 30 bp duplex.

In data set [5] the target is T2, RFC (Replication Factor C clamp …). The data set can be described thus: fluorescence anisotropy; RFC titrated; 1 uM mutant PCNA, 1 mM ATPgS, 10 mM MgCl2; Anisotropy: 30 mM Tris pH 7.5, 200 mM NaCl, 2 mM DTT, 1 mM ATPgS, 10 mM MgCl2, 100 nM TAMRA-DNA, 1 uM PCNA, 25 C. Crystals: 100 mM Na acetate pH 4.6, 100 mM NaCl, 14% PEG 4K, 20 C. To be noted: protein: recombinant;recombinant; tags: ;N-terminal 6-His, PreScission-cleaved; copies: 1;1;1;1;1;3; label: TAMRA at 5' end of template strand; 5' overhang 10 nt on template (3' recessed primer), 30 bp duplex.

Data set [6] deals with single-chain PCNA (three fused PCNA subunits) (Saccharomyces cerevisiae, UniProt P15873;P15873;P15873 1-257;2-257;2-258, R110S;Y114S). The data set can be described thus: X-ray crystallography; 3.0 A; DNA tilted ~40 deg, partly disordered, refined as rigid body; pH 4.6; Anisotropy: 30 mM Tris pH 7.5, 200 mM NaCl, 2 mM DTT, 1 mM ATPgS, 10 mM MgCl2, 100 nM TAMRA-DNA, 1 uM PCNA, 25 C. Crystals: 100 mM Na acetate pH 4.6, 100 mM NaCl, 14% PEG 4K, 20 C. To be noted: protein: recombinant; tags: N-terminal 6-His, PreScission-cleavable; copies: 1;1;1; label: Cy5 at 5' end of primer strand; 5' overhang 4 nt on template, 10 bp duplex.
Chain of single-chain PCNA (three fused PCNA subunits) (P15873 2-257 R110S/Y114S, one chain of several): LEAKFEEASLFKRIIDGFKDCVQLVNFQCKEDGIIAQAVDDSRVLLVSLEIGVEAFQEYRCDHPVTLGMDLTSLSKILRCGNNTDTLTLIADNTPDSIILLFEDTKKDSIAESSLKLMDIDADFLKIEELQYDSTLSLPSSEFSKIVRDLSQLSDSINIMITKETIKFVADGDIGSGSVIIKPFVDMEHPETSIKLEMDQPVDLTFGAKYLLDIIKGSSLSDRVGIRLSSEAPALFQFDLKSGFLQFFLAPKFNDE

B1: S. cerevisiae Proliferating Cell Nuclear Antigen (PCNA), wild type (natural protein)
chain: MLEAKFEEASLFKRIIDGFKDCVQLVNFQCKEDGIIAQAVDDSRVLLVSLEIGVEAFQEYRCDHPVTLGMDLTSLSKILRCGNNTDTLTLIADNTPDSIILLFEDTKKDRIAEYSLKLMDIDADFLKIEELQYDSTLSLPSSEFSKIVRDLSQLSDSINIMITKETIKFVADGDIGSGSVIIKPFVDMEHPETSIKLEMDQPVDLTFGAKYLLDIIKGSSLSDRVGIRLSSEAPALFQFDLKSGFLQFFLAPKFNDEE
notes: PCNA, S. cerevisiae; The subunit-with-subunit row from the single-chain PCNA structure is also written on this molecule; also called wild-type PCNA; yeast PCNA; source: E. coli BL21(DE3), purified (HisTrap FF, PreScission protease, HiTrap Q HP); not shown: His6, N-terminal, cleaved
In general, stoichiometry N refers to a count of units in the complex or per binding partner. For the molecule B1, the “stoichiometry N” value in data set [1] is 3.

B2: DNA-13 (dsDNA)
DNA 1: GAGCATTCAAGGACTTAGGTCTG
DNA 2: CAGACCTAAGTCC
For B2, the binding result in data set [2] and in data set [3] was “binds” each time.

B3: DNA-30 (dsDNA)
DNA 1: GAGCATTCAAGGACTTAGGTCTGTATTTATCTACCCACAA
DNA 2: TTGTGGGTAGATAAATACAGACCTAAGTCC
What is called Kd is a measure of binding affinity in units of concentration. As to B3, the dissociation constant Kd in data set [4] is about 100 nM. Also, in data set [5], the binding signal was ~5 fold weaker Kd than with wild-type PCNA (nearly 5).

B4: crystallization primer-template DNA (dsDNA)
DNA 1: TTTTATACGATGGG
DNA 2: CCCATCGTAT
As to B4, the binding result in data set [6] was “binds”.
